Positions count from the first letter of the chain named. Blank lines part the entries; values can stand above or below the binder they belong to.
Columns and labels:
human IL-1β [1] = target: T1, human IL-1β (human, UniProt P01584 117-269); assay: cell-based or functional assay
human IL-1β [2] = target: human IL-1β (human, UniProt P01584 117-269); assay: cell-based or functional assay; remark: listed apart in the source
human IL-1α = target: T2, human IL-1α (human, UniProt P01583 113-271); assay: cell-based or functional assay
T2 sequence (looked up): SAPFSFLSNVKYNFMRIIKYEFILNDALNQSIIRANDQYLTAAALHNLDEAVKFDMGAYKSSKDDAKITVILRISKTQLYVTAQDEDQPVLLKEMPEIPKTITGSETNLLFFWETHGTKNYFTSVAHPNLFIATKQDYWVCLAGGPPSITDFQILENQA

human IL-1β [3] = target: T1, human IL-1β; assay: IC50 column of Table 63; receptor binding assay presumed

ND50 (human IL-1β [1]): > 10000 nM
B1: ABT2-68 (other)
VL: DIQMTQSPSSLSASVGDRVTITCRASQNIWYHLNWYQQKPGKAPKLLIYLGSRLQSGVPSRFSGSGSGTDFTLTISSLQPEDFATYYCQQIHHDPFTFGQGTKVEIKR

IL-1β IC50 (human IL-1β [2]): 20 nM
IL-1α IC50 (human IL-1α): 2000 nM
B2: ABT2-108/ABT1-122-505 hu IgG1/K wt (bispecific antibody, V domains shown)
VH: EVQLLESGGGLVQPGGSLRLSCAASGFTFAEYTMMWVRQAPGKGLEWVSRIGQDGKNTYYADSVKGRFTISRDNSKNTLYLQMNSLRAEDTAVYYCAKYTGRVGVHHLFDYWGQGTLVTSS
VL: DIQMTQSPSSLSASVGDRVTITCRASQPIWTELNWYQQKPGKAPKLLIYGSSSLQSGVPSRFSGSGSGTDFTLTISSLQPEDFATYYCKQFAYFPATFGQGTKVEIKR

IL-1β IC50 (human IL-1β [2]): 0.16 nM
IL-1α IC50 (human IL-1α): 150 nM
B5: ABT2-108-521/ABT1-122-511 hu IgG1/K wt (bispecific antibody, V domains shown)
VH: EVQLLESGGGLVQPGGSLRLSCAASGFTFAEYTMMWVRQAPGKGLEWVSRIGQDGKNTYYADSVKGRFTISRDNSKNTLYLQMNSLRAEDTAVYYCAKYTGRILGHHLFDYWGQGTLVTVSS
VL: B2 VL with S56R

IL-1β IC50 (human IL-1β [2]): 9 nM
IL-1α IC50 (human IL-1α): 150 nM
B6: ABT2-108/ABT1-122-554 hu IgG1/K wt (bispecific antibody, V domains shown)
VH: B2 VH
VL: B2 VL with K89Q, G101E

IL-1β IC50 (human IL-1β [2]): 7 nM
IL-1α IC50 (human IL-1α): 70 nM
B8: ABT2-108/ABT1-122-555 hu IgG1/K wt (bispecific antibody, V domains shown)
VH: B2 VH
VL: B2 VL with A43T, K89Q

ND50 (human IL-1β [1]): > 10000 nM
B11: ABT2-72 (other)
VH: EVQLLESGGGLVQPGGSLRLSCAASGFTFRAYDMGWVRQAPGKGLEWVSVIYAWGTSTYYADSVKGRFTISRDNSKNTLYLQMNSLRAEDTAVYYCAKTSSDGFDYWGQGTLVTVSS

ND50 (human IL-1β [1]): > 1000 nM
IC50 (human IL-1β [3]): 1000 nM
B13: ABT2-61 (other)
VL: DIQMTQSPSSLSASVGDRVTITCRASQSIRVFLSWYQQKPGKAPKLLIYNASHLQSGVPSRFSGSGSGTDFTLTISSLQPEDFATYYCQQRALYPTTFGQGTKVEIKR
notes: VK dAb

ND50 (human IL-1β [1]): > 1000 nM
IC50 (human IL-1β [3]): 700 nM
B14: ABT2-59 (other)
VL: B13 VL with R30N, H53N
notes: VK dAb

ND50 (human IL-1β [1]): > 1000 nM
IC50 (human IL-1β [3]): 1000 nM
B15: ABT2-62 (other)
VL: B13 VL with R30Q, V31T, F32Y, H53N
notes: VK dAb

ND50 (human IL-1β [1]): 5 nM
B16: ABT2-108-533X (other)
VH: B5 VH with E31D, Y32E, T33G

ND50 (human IL-1β [1]): 5 nM
B18: ABT2-108-538X (other)
VH: B5 VH with E31D, Y32E, T33G, G52T, Q53Y, D54S

ND50 (human IL-1β [1]): 1000 nM
IC50 (human IL-1β [3]): 175 nM
B20: ABT2-13 (other)
VH: EVQLLESGGGLVQPGGSLRLSCAASGFTFRDYVMYWARQAPGKGLEWVSRIDPMGSSTYYADSVKGRFTISRDNSKNTLYLQMNSLRAEDTAVYYCAKPEGNFDYWGQGTLVTVSS

ND50 (human IL-1β [1]): > 10000 nM
B21: ABT2-67 (other)
VL: DIQMTQSPSSLSASVGDRVTITCRASQYIGEHLAWYQQKPGKAPKLLIYHNSALQSGVPSRFSGSGSGTDFTLTISSLQPEDFATYYCQQHAFLPNTFGQGTKVEIKR

ND50 (human IL-1β [1]): 500 nM
B22: ABT2-76 (other)
VL: B21 VL with Y28S, G30D, E31R, H32W, H50R, N51G, A53I, H91V, L94W, N96P

IL-1α IC50 (human IL-1α): 100 nM
B23: ABT2-65-17/ABT1-212 hu IgG1/K wt (bispecific antibody, V domains shown)
VH: EVQLLESGGGLVQPGGSLRLSCVASGFTFEDYQMGWVRQAPGKGLEWVSSISAMGNRTYYADSVKGRFTISRDDSKNTLYLQMNSLRAEDTAVYYCAQNLVRLGRSRWMFDYWGQGTLVTVSS
VL: DIQMTQSPSSLSASVGDRVTITCRASQRINGNLRWYQQKPGKAPKLLIYSVSQLQSGVPSRFSGSGSGTDFTLTISSLQPEDFATYYCQQGYDWPPTFGQGTKVETKR

ND50 (human IL-1β [1]): 80 nM
IC50 (human IL-1β [3]): 20 nM
B25: ABT2-65-48 (other)
VH: EVQLLESGGGLVQPGGSLRLSCAASGFTFEDYQMGWVRQAPGKGLEWVSSISAMGNRTYYADSVKGRFTISRDDSKNTLYLQMNSLRAEDTAVYYCAKWQMRTQSKLGYFDYWGQGTLVTVSS
notes: VH dAb

ND50 (human IL-1β [1]): 1.5 nM
IC50 (human IL-1β [3]): 3 nM
B26: ABT2-65-154 (other)
VH: B23 VH with V23A, Y59H, L103I, G104R, S106T, R107K
notes: VH dAb

ND50 (human IL-1β [1]): 4 nM
IC50 (human IL-1β [3]): 4 nM
B31: ABT2-65-166 (other)
VH: B23 VH with V23A, N56G, D74N

ND50 (human IL-1β [1]): 80 nM
IC50 (human IL-1β [3]): 20 nM
B32: ABT2-65-47 (other)
VH: B25 VH with Q100R, M101K
notes: VH dAb

ND50 (human IL-1β [1]): 3 nM
IC50 (human IL-1β [3]): 3.3 nM
B33: ABT2-65-113 (other)
VH: B23 VH with V23A, E30V, D31Q
notes: VH dAb

ND50 (human IL-1β [1]): 2 nM
IC50 (human IL-1β [3]): 6 nM
B36: ABT2-65-79 (other)
VH: B23 VH with E89G, L118M
notes: VH dAb

ND50 (human IL-1β [1]): 1 nM
IC50 (human IL-1β [3]): 2 nM
B37: ABT2-65-140 (other)
VH: B23 VH with V23A, Q98E, R102K, L103I, G104S, S106R, R107H
notes: VH dAb

ND50 (human IL-1β [1]): > 1000 nM
IC50 (human IL-1β [3]): 30 nM
B38: ABT2-65-6 (other)
VH: B23 VH with V23A, L103T, G104Q, R105S, S106K, R107M
notes: VH dAb

The next lines start with the binder.

B3: ABT2-108/ABT1-122-508 hu IgG1/K wt (bispecific antibody, V domains shown)
VH: B2 VH
VL: B2 VL with S56R, K89Q
IL-1β IC50 (human IL-1β [2]): 20 nM
IL-1α IC50 (human IL-1α): 400 nM

B4: ABT2-108/ABT1-122-556 hu IgG1/K wt (bispecific antibody, V domains shown)
VH: B2 VH
VL: B2 VL with Y87H, K89Q
IL-1β IC50 (human IL-1β [2]): 15 nM
IL-1α IC50 (human IL-1α): 150 nM

B7: ABT2-108-538x/ABT1-122-555 hu IgG1/K wt (bispecific antibody, V domains shown)
VH: B5 VH with E31D, Y32E, T33G, G52T, Q53Y, D54S
VL: B2 VL with A43T, K89Q
IL-1β IC50 (human IL-1β [2]): 0.015 nM
IL-1α IC50 (human IL-1α): 25 nM

B9: ABT2-108-620x/ABT1-122-512 huIgG1/K wt (bispecific antibody, V domains shown)
VH: B5 VH with Y32E, T33S, M34W, A61R, D62E, S63D, L104M
VL: B2 VL with S52A, S53K, L54R, S56R
IL-1β IC50 (human IL-1β [2]): 0.006 nM
IL-1α IC50 (human IL-1α): 150 nM

B10: ABT2-69 (other)
VH: B11 VH with R30T, A31G, G35A, W54Y, T56E, T99V, S100Y, D102N, G103Q
ND50 (human IL-1β [1]): > 10000 nM

B12: ABT2-60 (other)
VL: B13 VL with H53N
notes: VK dAb
ND50 (human IL-1β [1]): > 1000 nM
IC50 (human IL-1β [3]): 1000 nM

B17: ABT2-108-533x/ABT1-122 hu IgG1/K wt (bispecific antibody, V domains shown)
VH: B5 VH with E31D, Y32E, T33G
VL: DIQMTQSPSSLSASVGDRVTITCRASQPIWTELNWYQQKPGKAPKLLIYGSSSLQSGVPRFSGSGSGTDFTLTISSLQPEDFATYYCQQFAYFPATFGQGTKVEIKR
IL-1α IC50 (human IL-1α): 1000 nM

B19: ABT2-108-537X (other)
VH: B5 VH with E31D, Y32E, T33G, A61R, D62M, S63D
ND50 (human IL-1β [1]): 206 nM

B24: ABT2-65 (other)
VH: B25 VH with W99N, Q100L, M101V, L107M, G108W, Y109M
ND50 (human IL-1β [1]): 505 nM
IC50 (human IL-1β [3]): 100 nM

B27: ABT2-65-81 (other)
VH: B23 VH with D31E
notes: VH dAb
ND50 (human IL-1β [1]): 2 nM
IC50 (human IL-1β [3]): 10 nM

B28: ABT2-65-7 (other)
VH: B23 VH with V23A, M54T, L103T, G104R, R105I, S106K, R107M
notes: VH dAb
ND50 (human IL-1β [1]): 200 nM
IC50 (human IL-1β [3]): 30 nM

B29: ABT2-65-8 (other)
VH: B23 VH with V23A, L103M, G104D, R105S, S106R
ND50 (human IL-1β [1]): 3 nM
IC50 (human IL-1β [3]): 10 nM

B30: ABT2-65-82 (other)
VH: B23 VH with Q13R, S75P
notes: VH dAb
ND50 (human IL-1β [1]): 2 nM
IC50 (human IL-1β [3]): 8 nM

B34: ABT2-65-89 (other)
VH: B23 VH with L100M
notes: VH dAb
ND50 (human IL-1β [1]): 2 nM
IC50 (human IL-1β [3]): 10 nM

B35: ABT2-65-85 (other)
VH: B23 VH with L5M, T69A, E89K
notes: VH dAb
ND50 (human IL-1β [1]): 2 nM
IC50 (human IL-1β [3]): 7 nM

— US20090291081A1 (AbbVie / Abbott, published 2009)
